Results taken from the supplement of paper PMC10724198.
± gives the standard deviation of the averaged measurements.

system: Saccharomyces cerevisiae; assay: protein stability index of tFT-peptide fusion (C-terminal peptide) (PSI (0-1 scale)); higher = more stable (slower turnover); settings: genetic background: wild type; temperature: 30 C
Description: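 MPS profiling in S. cerevisiae of the yeast C-terminome library: the last 12 aa of each annotated ORF are fused to the C-terminus of a sfGFP-mCherry timer, after a GGGS linker. Cells are FACS-sorted into 8 mCherry/sfGFP bins and deep-sequenced. PSI runs from 0 (unstable) to 1 (stable); wild type and das1Δ backgrounds, two technical replicates each.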

Sequence | protein stability index
NGSDNVTPGGRL [STE50 C-terminal 12 aa] | 0.685 ± 0.022
NIIIIILYVYIH [MOR1 C-terminal 12 aa] | 0.228 ± 0.025
NISNGSSTQDMK [HPR1 C-terminal 12 aa] | 0.704 ± 0.065
NKGSQLLAKLLK [PUF6 C-terminal 12 aa] | 0.674 ± 0.036
NKHDLHLRPETY [YAR010C C-terminal 12 aa] | 0.678 ± 0.021
NKHDLHLRPGTY [YDR098C-A C-terminal 12 aa] | 0.658 ± 0.007
NKLLDKESVSED [YLR046C C-terminal 12 aa] | 0.711 ± 0.11
NKTICLRNYHWL [YIR017W-A C-terminal 12 aa] | 0.607 ± 0.0078
NLKLKFNENIME [DIT2 C-terminal 12 aa] | 0.639 ± 0.0087
NLLLSGSLYQKN [BUD28 C-terminal 12 aa] | 0.672 ± 0.036
NMEKFVRKCWKD [MKK1 C-terminal 12 aa] | 0.73796 ± 0.00058
NQVKLNQLLVGN [CSE1 C-terminal 12 aa] | 0.641 ± 0.0068
NTLLSPSRKDNS [MVB12 C-terminal 12 aa] | 0.698 ± 0.034
NVAAAEASKKGN [YET1 C-terminal 12 aa] | 0.685 ± 0.053
NVDDAYSRVFGI [MPS2 C-terminal 12 aa] | 0.673 ± 0.025
NVEDEYSYSLTL [VPS68 C-terminal 12 aa] | 0.706 ± 0.066
NVGNNEETLDDH [RAD34 C-terminal 12 aa] | 0.701 ± 0.067
NVWDWNNWTSAT [GAL11 C-terminal 12 aa] | 0.767 ± 0.012
NYESVEVPAANN [YML018C C-terminal 12 aa] | 0.7097 ± 0.0019
PARESMLHKEIK [ADE12 C-terminal 12 aa] | 0.668 ± 0.011
PCYSDAPPRFMC [YER152W-A C-terminal 12 aa] | 0.287 ± 0.0035

Sequence | protein stability index
PDMIEELDLHED [GPD1 C-terminal 12 aa] | 0.749 ± 0.1
PDYKSNTQILVL [YOL155W-A C-terminal 12 aa] | 0.584 ± 0.029
PEEETNWFSGHG [PRP31 C-terminal 12 aa] | 0.73 ± 0.025
PEMIEELDIDDE [GPD2 C-terminal 12 aa] | 0.658 ± 0.015
PEYDQVKQNNKE [YLR041W C-terminal 12 aa] | 0.676 ± 0.03
PFNRNVSDKLKK [VAC14 C-terminal 12 aa] | 0.713 ± 0.063
PGVMLGRWKVTA [VPS61 C-terminal 12 aa] | 0.356 ± 0.0069
PGWDFNVQIFAI [HRD3 C-terminal 12 aa] | 0.607 ± 0.0086
PIICASVTFLPT [YAL056C-A C-terminal 12 aa] | 0.629 ± 0.026
PIKGGDKASSEL [ATG5 C-terminal 12 aa] | 0.6877 ± 0.0045
PILSQEVDRWRL [GAC1 C-terminal 12 aa] | 0.744 ± 0.018
PIRGVTGGVYKW [MRPL22 C-terminal 12 aa] | 0.702 ± 0.02
PKALFQSRDQEH [SIC1 C-terminal 12 aa] | 0.702 ± 0.014
PKIGILHNYLYL [YFT2 C-terminal 12 aa] | 0.654 ± 0.0094
PLLLVSHLNFAV [YIR020C-B C-terminal 12 aa] | 0.557 ± 0.033
PLVHEVNGNEGK [DUF1 C-terminal 12 aa] | 0.716 ± 0.076
PNAIRGIKAKKA [COX7 C-terminal 12 aa] | 0.675 ± 0.046
PPVPEVPQEYTQ [TCB3 C-terminal 12 aa] | 0.709 ± 0.041
PSLRTRSSYTEE [FLR1 C-terminal 12 aa] | 0.717 ± 0.043
PTCETTIDIDRI [ZRG17 C-terminal 12 aa] | 0.65 ± 0.0076
QDGIKEAASALA [INO80 C-terminal 12 aa] | 0.665 ± 0.04

Sequence | protein stability index
QDKRSSQAIDVL [MMS21 C-terminal 12 aa] | 0.6684 ± 0.0019
QEGNRMCIWMSG [YFL015C C-terminal 12 aa] | 0.7 ± 0.011
QEGTFKRLALPA [THI11 C-terminal 12 aa] | 0.65426 ± 7.7e-05
QEKEHKKHTVAR [CAJ1 C-terminal 12 aa] | 0.672 ± 0.014
QFLFTGRQKNYV [ERP2 C-terminal 12 aa] | 0.718 ± 0.024
QFWKNTPKVEQK [HOC1 C-terminal 12 aa] | 0.695 ± 0.019
QGALDSLLNGDV [DSK2 C-terminal 12 aa] | 0.701 ± 0.019
QGKAFYDRIKDL [RFS1 C-terminal 12 aa] | 0.255 ± 0.025
QGKVRLWKLNHY [UTP18 C-terminal 12 aa] | 0.616 ± 0.025
QIDKYMDLFTEG [PDH1 C-terminal 12 aa] | 0.7354 ± 0.0063
QIVEEWIVSTEA [CLB4 C-terminal 12 aa] | 0.63 ± 0.023
QIVNSTPVFTWC [LSB6 C-terminal 12 aa] | 0.652 ± 0.034
QKRSCFFLANIH [YKL183C-A C-terminal 12 aa] | 0.608 ± 0.027
QLENKLEILKQK [SPC19 C-terminal 12 aa] | 0.7259 ± 0.0072
QLLNLLVKISQL [RFC2 C-terminal 12 aa] | 0.18 ± 0.0089
QNLLPAEKFTHN [CTR1 C-terminal 12 aa] | 0.663 ± 0.0075
QPKKKRKKSILH [SPP41 C-terminal 12 aa] | 0.672 ± 0.05
QPLLPCFFRRAV [YER147C-A C-terminal 12 aa] | 0.4308 ± 0.0042
QQLQSPTAPPTE [COX14 C-terminal 12 aa] | 0.694 ± 0.038
QQSESLPQQTTA [PIL1 C-terminal 12 aa] | 0.737 ± 0.049
QRIEGMLQLLTS [UTP15 C-terminal 12 aa] | 0.64093 ± 0.00026

Sequence | protein stability index
QSLYKDATSHWL [GYP1 C-terminal 12 aa] | 0.6825 ± 0.0036
QSVAILDGKLVW [YGL258W-A C-terminal 12 aa] | 0.65 ± 0.021
QTLAPVPYETFI [RPL21A C-terminal 12 aa] | 0.728 ± 0.013
QVVAIIKKAYEY [ADH4 C-terminal 12 aa] | 0.679 ± 0.015
QYKNKLAKNVVL [ARB1 C-terminal 12 aa] | 0.6797 ± 0.0058
QYTQRVGRPNFE [YGR226C C-terminal 12 aa] | 0.674 ± 0.026
RARPRTANRQHM [CCT2 C-terminal 12 aa] | 0.6991 ± 0.005
RDLLRDDKVALI [SLD5 C-terminal 12 aa] | 0.6977 ± 0.0027
REENAHLETYKV [HRK1 C-terminal 12 aa] | 0.694 ± 0.016
RERALKVYKDAM [PHR1 C-terminal 12 aa] | 0.657 ± 0.0079
RFQDGTSVVSIM [SMC2 C-terminal 12 aa] | 0.6814 ± 0.006
RHISRLSRLLCR [YGR273C C-terminal 12 aa] | 0.621 ± 0.027
RINQDIKKVKLL [EMP46 C-terminal 12 aa] | 0.145 ± 0.016
RKAVDALRSLTN [ACK1 C-terminal 12 aa] | 0.722 ± 0.045
RKVVFERMETLE [MRPS16 C-terminal 12 aa] | 0.683 ± 0.031
RLGDVLRVCCPS [YFL065C C-terminal 12 aa] | 0.668 ± 0.0092
RLKLDYSLIFPQ [MEI5 C-terminal 12 aa] | 0.72 ± 0.038
RLLSLAQPPVNF [YER165C-A C-terminal 12 aa] | 0.703 ± 0.04
RQCEDTNFGFKI [YDL242W C-terminal 12 aa] | 0.688 ± 0.039
